Experimental findings from patent publication US10464978B2, “Peptides and combination of peptides for use in immunotherapy against ovarian cancer and other cancers” (immatics biotechnologies GmbH, priority 2015, dated 2019) are described below.

The experiment addresses HLA-A*02:01 (Homo sapiens, UniProt P04439, D140Y/D185E/D98H/E176V/E277Q/G131W/G231S/I119V/I121R/I166T/I218V/L300P/L318F/N151K/N90K/P208A/P217A/Q86G/Q94H/R138H/R169H/T345S). Briefly: MHC binding assay: UV-ligand exchange with beta2m ELISA (peptide exchange yield). The conditions noted are these: binding to HLA-A*02:01. The gist of the method:
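Peptide-MHC complexes formed by UV-ligand exchange, a UV-cleavable peptide being replaced by the candidate peptide. Exchange products diluted 100-fold, captured on streptavidin-coated plates for 1h at 37° C, then detected with 2 ug/ml HRP anti-β2m (1h, 37° C) and TMB, absorbance 450 nm; value is exchange yield.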
For orientation: ELISA stands for enzyme-linked immunosorbent assay.
As for “29 (KMLGIPISNILMV; listed as Homo sapiens) [compound 29]”, the “Peptide exchange (MHC class I binding score, peptide exchange yield)” value (“Peptide exchange” below) is listed as ““+++” (≥50 = +++)”.
Under “119 (FLYIGDIVSL; listed as Homo sapiens) [compound 119]” stands ““++++” (≥75% = ++++)”; under “42 (VLLQKIVSA; listed as Homo sapiens) [compound 42]”, ““+++” (≥50 = +++)”; under “43 (VLSSLEINI; listed as Homo sapiens) [compound 43]”, ““++” (≥20% = ++)”.
Consider “387 (ALFQATAEV; listed as Homo sapiens) [compound 387]”, for which the “Peptide exchange” value is ““++++” (≥75% = ++++)”.
In the case of “371 (FLQAHLHTA; listed as Homo sapiens) [compound 371]”, the “Peptide exchange” value is listed as ““++++” (≥75% = ++++)”.
To “69 (FQLDPSSGVLVTV; listed as Homo sapiens) [compound 69]” belongs ““+++” (≥50 = +++)”; to “2 (SLLEADPFL; listed as Homo sapiens) [compound 2]”, ““+++” (≥50 = +++)”.
As for “173 (LLDSASAGLYL; listed as Homo sapiens) [compound 173]”, the “Peptide exchange” value is recorded as ““+++” (≥50 = +++)”.
Under “565 (ALQETPTSV; listed as Homo sapiens) [compound 565]” stands ““++” (≥20% = ++)”.
Under “131 (FVPPVTVFPSL; listed as Homo sapiens) [compound 131]” stands ““++” (≥20% = ++)”; under “564 (TVTNAVVTV; listed as Homo sapiens) [compound 564]”, ““+++” (≥50 = +++)”.
Take “463 (SLVESHLSDQLTL; listed as Homo sapiens) [compound 463]”: the “Peptide exchange” value is ““+++” (≥50 = +++)”.
As to “309 (GLFDGVPTTA; listed as Homo sapiens) [compound 309]”, the “Peptide exchange” value was ““+++” (≥50 = +++)”.
Turning to “167 (KVLEVTEEFGV; listed as Homo sapiens) [compound 167]”, the “Peptide exchange” value is ““+++” (≥50 = +++)”.
As to “5 (HLTEVYPEL; listed as Homo sapiens) [compound 5]”, the “Peptide exchange” value is on record as ““+++” (≥50 = +++)”.
For “575 (YLISQVEGHQV; listed as Homo sapiens) [compound 575]”, the “Peptide exchange” value is on record as ““+++” (≥50 = +++)”.
Under “30 (LILDWVPYI; listed as Homo sapiens) [compound 30]” stands ““+++” (≥50 = +++)”; under “126 (VLAYFLPEA; listed as Homo sapiens) [compound 126]”, ““++++” (≥75% = ++++)”.
Turning to “96 (YIFTDNPAAV; listed as Homo sapiens) [compound 96]”, the “Peptide exchange” value was ““+++” (≥50 = +++)”.
Under “141 (YLDFSNNRL; listed as Homo sapiens) [compound 141]” stands ““++” (≥20% = ++)”.
For “257 (SIFSAFLSV; listed as Homo sapiens) [compound 257]”, the “Peptide exchange” value was ““+++” (≥50 = +++)”.
To “487 (LLINSVFHV; listed as Homo sapiens) [compound 487]” belongs ““+++” (≥50 = +++)”.
Regarding “121 (GVVDPRAISVL; listed as Homo sapiens) [compound 121]”, the “Peptide exchange” value was ““++” (≥20% = ++)”.
Under “481 (GLIEDYEALL; listed as Homo sapiens) [compound 481]” stands ““+++” (≥50 = +++)”.
